To fix the notation:
B1: DYRK1B (parent)
chain: ARKYFERLPGGGWTLRRTKELRKD
B2: TRAF3IP2 (parent)
chain: PGQPLPGASVRGLHPVQKVILNYP
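Also: lentivirally expressed fusions sorted by FACS into six bins by GFP to DsRed ratio, PSI derived from sequencing read proportions per bin multiplied by bin number.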

One data set covers variants of B1. In words: protein stability index of a GFP-peptide fusion (GPS, HEK-293T) (PSI 1-6); higher = more stable. To be noted: c terminus: a fixed tail appended.
On to ARKWFERLPGGGWTLRRTKELRKD [Y4W], for which the protein stability index stood at 2.2.

Consider ARKMFERLPGGGWTLRRTKELRKD [Y4M], for which the protein stability index worked out at 3.21.

With ARKNFERLPGGGWTLRRTKELRKD [Y4N], the protein stability index was determined as 4.17.

For ARKFFERLPGGGWTLRRTKELRKD [Y4F], the protein stability index was determined as 2.91.

In the case of ARKCFERLPGGGWTLRRTKELRKD [Y4C], the protein stability index was 3.29.

Regarding ARKPFERLPGGGWTLRRTKELRKD [Y4P], the protein stability index was 4.82.

Regarding ARKSFERLPGGGWTLRRTKELRKD [Y4S], the protein stability index stood at 3.37.

Consider ARKLFERLPGGGWTLRRTKELRKD [Y4L], for which the protein stability index is 3.14.

On to ARKDFERLPGGGWTLRRTKELRKD [Y4D], for which the protein stability index stood at 4.48.

In the case of ARKQFERLPGGGWTLRRTKELRKD [Y4Q], the protein stability index was 3.34.

ARKTFERLPGGGWTLRRTKELRKD [Y4T]: the protein stability index came out at 3.14.

With ARKIFERLPGGGWTLRRTKELRKD [Y4I], the protein stability index worked out at 2.87.

Take ARKVFERLPGGGWTLRRTKELRKD [Y4V]: the protein stability index amounted to 3.44.

For the variant ARKAFERLPGGGWTLRRTKELRKD [Y4A], the protein stability index was 2.7.

For the variant ARKEFERLPGGGWTLRRTKELRKD [Y4E], the protein stability index stood at 3.76.

Turning to ARKHFERLPGGGWTLRRTKELRKD [Y4H], the protein stability index turned out to be 4.07.

With ARKRFERLPGGGWTLRRTKELRKD [Y4R], the protein stability index was 4.29.

For the variant ARKGFERLPGGGWTLRRTKELRKD [Y4G], the protein stability index worked out at 4.37.

As to ARKYFWRLPGGGWTLRRTKELRKD [E6W], the protein stability index was found to be 2.67.

ARKYFYRLPGGGWTLRRTKELRKD [E6Y]: the protein stability index turned out to be 3.62.

Take ARKYFMRLPGGGWTLRRTKELRKD [E6M]: the protein stability index was 2.36.

For the variant ARKYFCRLPGGGWTLRRTKELRKD [E6C], the protein stability index was found to be 3.85.

As to ARKYFDRLPGGGWTLRRTKELRKD [E6D], the protein stability index is 3.69.

As for ARKYFVRLPGGGWTLRRTKELRKD [E6V], the protein stability index came to 3.35.

With ARKYFRRLPGGGWTLRRTKELRKD [E6R], the protein stability index worked out at 4.86.

Take ARKYFHRLPGGGWTLRRTKELRKD [E6H]: the protein stability index worked out at 3.34.

With ARKYFPRLPGGGWTLRRTKELRKD [E6P], the protein stability index was 3.39.

Consider ARKYFTRLPGGGWTLRRTKELRKD [E6T], for which the protein stability index is 3.78.

On to ARKYFQRLPGGGWTLRRTKELRKD [E6Q], for which the protein stability index stood at 2.55.

Consider ARKYFNRLPGGGWTLRRTKELRKD [E6N], for which the protein stability index is 3.07.

As for ARKYFIRLPGGGWTLRRTKELRKD [E6I], the protein stability index was found to be 3.38.

For ARKYFKRLPGGGWTLRRTKELRKD [E6K], the protein stability index was 2.78.

For ARKYFARLPGGGWTLRRTKELRKD [E6A], the protein stability index was 4.08.

For ARKYFSRLPGGGWTLRRTKELRKD [E6S], the protein stability index was 3.21.

Regarding ARKYFLRLPGGGWTLRRTKELRKD [E6L], the protein stability index stood at 2.64.

ARKYFFRLPGGGWTLRRTKELRKD [E6F]: the protein stability index came out at 3.37.

In a further data set the parent is B2. Described as above. The settings on record: c terminus: a fixed tail appended.
PGQPLPGASVRGLHPVQKVILNYN [P24N]: the protein stability index was found to be 3.5.

PGQPLPGASVRGLHPVQKVILNYC [P24C]: the protein stability index worked out at 2.69.

For PGQPLPGASVRGLHPVQKVILNYH [P24H], the protein stability index amounted to 2.38.

Consider PGQPLPGASVRGLHPVQKVILNYQ [P24Q], for which the protein stability index is 3.11.

Turning to PGQPLPGASVRGLHPVQKVILNYE [P24E], the protein stability index was found to be 3.31.

In the case of PGQPLPGASVRGLHPVQKVILNYR [P24R], the protein stability index is 2.65.

Take PGQPLPGASVRGLHPVQKVILNYV [P24V]: the protein stability index is 1.93.

For PGQPLPGASVRGLHPVQKVILNYA [P24A], the protein stability index was determined as 3.16.

Consider PGQPLPGASVRGLHPVQKVILNYK [P24K], for which the protein stability index is 3.43.

With PGQPLPGASVRGLHPVQKVILNYS [P24S], the protein stability index came to 2.7.

On to PGQPLPGASVRGLHPVQKVILNYM [P24M], for which the protein stability index turned out to be 1.22.

Take PGQPLPGASVRGLHPVQKVILNYD [P24D]: the protein stability index came to 3.68.

Regarding PGQPLPGASVRGLHPVQKVILNYI [P24I], the protein stability index is 1.77.

With PGQPLPGASVRGLHPVQKVILNYL [P24L], the protein stability index worked out at 2.13.

On to PGQPLPGASVRGLHPVQKVILNYT [P24T], for which the protein stability index came to 2.71.

For the variant PGQPLPGASVRGLHPVQKVILNYF [P24F], the protein stability index is 1.78.

Consider PGQPLPGASVRGLHPVQKVILNYW [P24W], for which the protein stability index is 2.72.

As to PGQPLPGASVRGLHPVQKVILNYG [P24G], the protein stability index stood at 2.56.

As to PGQPLPGASVRGLHPVQKVILNYY [P24Y], the protein stability index is 1.79.

Take PGQPLPGASVRGLHPVQKVILNGP [Y23G]: the protein stability index came out at 3.71.

In the case of PGQPLPGASVRGLHPVQKVILNSP [Y23S], the protein stability index was 4.02.

With PGQPLPGASVRGLHPVQKVILNRP [Y23R], the protein stability index is 3.5.

With PGQPLPGASVRGLHPVQKVILNIP [Y23I], the protein stability index turned out to be 3.19.

Regarding PGQPLPGASVRGLHPVQKVILNTP [Y23T], the protein stability index amounted to 3.43.

For PGQPLPGASVRGLHPVQKVILNCP [Y23C], the protein stability index was 3.42.

Regarding PGQPLPGASVRGLHPVQKVILNEP [Y23E], the protein stability index turned out to be 3.86.

For the variant PGQPLPGASVRGLHPVQKVILNQP [Y23Q], the protein stability index turned out to be 4.07.

On to PGQPLPGASVRGLHPVQKVILNAP [Y23A], for which the protein stability index was 3.9.

In the case of PGQPLPGASVRGLHPVQKVILNMP [Y23M], the protein stability index was determined as 3.36.

Consider PGQPLPGASVRGLHPVQKVILNFP [Y23F], for which the protein stability index is 3.45.

In the case of PGQPLPGASVRGLHPVQKVILNVP [Y23V], the protein stability index turned out to be 3.26.

Consider PGQPLPGASVRGLHPVQKVILNDP [Y23D], for which the protein stability index worked out at 4.72.

Consider PGQPLPGASVRGLHPVQKVILNLP [Y23L], for which the protein stability index worked out at 2.71.

As to PGQPLPGASVRGLHPVQKVILNKP [Y23K], the protein stability index came out at 4.43.

PGQPLPGASVRGLHPVQKVILNHP [Y23H]: the protein stability index stood at 3.95.

Regarding PGQPLPGASVRGLHPVQKVILNNP [Y23N], the protein stability index is 3.63.

PGQPLPGASVRGLHPVQKVILNWP [Y23W]: the protein stability index turned out to be 2.52.

As to PGQPLPGASVRGLHPVQKVILNPP [Y23P], the protein stability index was found to be 4.11.

On to PGQPLPGASVRGLHPVQKVILRYP [N22R], for which the protein stability index was 4.18.

Regarding PGQPLPGASVRGLHPVQKVILGYP [N22G], the protein stability index stood at 2.54.

Take PGQPLPGASVRGLHPVQKVILYYP [N22Y]: the protein stability index turned out to be 1.95.

Consider PGQPLPGASVRGLHPVQKVILHYP [N22H], for which the protein stability index was 2.49.

Turning to PGQPLPGASVRGLHPVQKVILDYP [N22D], the protein stability index came out at 3.13.

As to PGQPLPGASVRGLHPVQKVILLYP [N22L], the protein stability index was determined as 1.83.

Turning to PGQPLPGASVRGLHPVQKVILQYP [N22Q], the protein stability index is 2.98.

As for PGQPLPGASVRGLHPVQKVILSYP [N22S], the protein stability index was determined as 3.27.

Consider PGQPLPGASVRGLHPVQKVILVYP [N22V], for which the protein stability index turned out to be 1.69.

With PGQPLPGASVRGLHPVQKVILPYP [N22P], the protein stability index was 3.44.

As for PGQPLPGASVRGLHPVQKVILAYP [N22A], the protein stability index came to 2.74.

As for PGQPLPGASVRGLHPVQKVILCYP [N22C], the protein stability index amounted to 2.51.

Consider PGQPLPGASVRGLHPVQKVILMYP [N22M], for which the protein stability index turned out to be 2.3.

On to PGQPLPGASVRGLHPVQKVILTYP [N22T], for which the protein stability index turned out to be 3.05.

On to PGQPLPGASVRGLHPVQKVILEYP [N22E], for which the protein stability index stood at 3.51.

As for PGQPLPGASVRGLHPVQKVILFYP [N22F], the protein stability index was 1.59.

As to PGQPLPGASVRGLHPVQKVITNYP [L21T], the protein stability index was 3.71.

As to PGQPLPGASVRGLHPVQKVIYNYP [L21Y], the protein stability index was 3.24.

As for PGQPLPGASVRGLHPVQKVIWNYP [L21W], the protein stability index is 2.22.

Turning to PGQPLPGASVRGLHPVQKVIVNYP [L21V], the protein stability index came to 2.87.
